# From publication PMC5734611 (Nature nanotechnology, 2016)
# Target: the molecule itself
# Assay: high-speed atomic force microscopy
protein,measurement,value
"bacterial glycerol uptake facilitator GlpF (natural protein, Atto 488 maleimide on cysteines (C261 and C264)) MSQTSTLKGQSIAEFLGTGLLIFFGVGSVAALKVAGASFGQWEISVIWGLGVAMAIYLTAGVSGAHLNPAVTIALWLFASFDKRKVIPFIVSQVAGAFSAAALVYGLYYNLFFDFEQTHHIVRGSVESVDLAGTFSTYPNPHINFVQAFAVEMVITAILMGLILALTDDGNGVPRGPLAPLLIGLLIAVIGASMGPLTGFAMNPARDFGPKVFAWLAGWGNVAFTGGRDIPYFLVPLFGPIVGAIVGAFAYRKLIGRHLPCDICVVEEKETTTPSEQKASL",stoichiometry N,4
